Legend:
SMARCE1 (human) [1] = target: SMARCE1 (human) (UniProt Q969G3); assay: HA-bait purification from HEK-293T nuclear extract, mass spectrometry, peptide count
SMARCA2 (human) [2] = target: SMARCA2 (human) (UniProt P51531); assay: as above
BCL7C (human) [3] = target: BCL7C (human) (UniProt Q8WUZ0); assay: as above
ACTL6B (human) = ACTL6B (human) (UniProt O94805); assay: as above
DPF2 (human) = DPF2 (human) (UniProt Q92785); assay: as above
PHF10 (human) = PHF10 (human) (UniProt Q8WUB8); assay: as above
SMARCC1 (human) [4] = target: SMARCC1 (human) (UniProt Q92922); assay: as above
SMARCA4 (human) [5] = target: SMARCA4 (human) (UniProt P51532); assay: as above
ARID2 (human) = ARID2 (human) (UniProt Q68CP9); assay: as above
SMARCD3 (human) [6] = target: SMARCD3 (human) (UniProt Q6STE5); assay: as above
SMARCB1 (human) [7] = target: SMARCB1 (human) (UniProt Q12824); assay: as above
ACTL6A (human) [8] = target: ACTL6A (human) (UniProt O96019); assay: as above
BCL7A (human) [9] = target: BCL7A (human) (UniProt Q4VC05); assay: as above
SMARCD2 (human) [10] = target: SMARCD2 (human) (UniProt Q92925); assay: as above
SMARCC2 (human) [11] = target: SMARCC2 (human) (UniProt Q8TAQ2); assay: as above
PBRM1 (human) = PBRM1 (human) (UniProt Q86U86); assay: as above
BCL7B (human) = BCL7B (human) (UniProt Q9BQE9); assay: as above
SMARCD1 (human) [12] = target: SMARCD1 (human) (UniProt Q96GM5); assay: as above
GLTSCR1 (human) = GLTSCR1 (human) (UniProt Q9NZM4); assay: as above
GLTSCR1L (human) = GLTSCR1L (human) (UniProt Q6AI39); assay: as above
SS18 (human) [13] = target: SS18 (human) (UniProt Q15532); assay: as above
SMARCD1 (human) [14] = target: SMARCD1 (human) (UniProt Q96GM5); assay: HA-bait purification from HEK-293T nuclear extract, glycerol gradient fractions 13-14, mass spectrometry, peptide count
ARID1A (human) = ARID1A (human) (UniProt O14497); assay: as above
SMARCE1 (human) [15] = target: SMARCE1 (human) (UniProt Q969G3); assay: as above
SMARCA2 (human) [16] = target: SMARCA2 (human) (UniProt P51531); assay: as above
SS18L1 (human) = SS18L1 (human) (UniProt O75177); assay: as above
BCL7C (human) [17] = target: BCL7C (human) (UniProt Q8WUZ0); assay: as above
SMARCC1 (human) [18] = target: SMARCC1 (human) (UniProt Q92922); assay: as above
SMARCA4 (human) [19] = target: SMARCA4 (human) (UniProt P51532); assay: as above
SMARCD3 (human) [20] = target: SMARCD3 (human) (UniProt Q6STE5); assay: as above
ARID1B (human) = ARID1B (human) (UniProt Q8NFD5); assay: as above
SMARCB1 (human) [21] = target: SMARCB1 (human) (UniProt Q12824); assay: as above
ACTL6A (human) [22] = target: ACTL6A (human) (UniProt O96019); assay: as above
BCL7A (human) [23] = target: BCL7A (human) (UniProt Q4VC05); assay: as above
SMARCD2 (human) [24] = target: SMARCD2 (human) (UniProt Q92925); assay: as above
SMARCC2 (human) [25] = target: SMARCC2 (human) (UniProt Q8TAQ2); assay: as above
SS18 (human) [26] = target: SS18 (human) (UniProt Q15532); assay: as above

Sequence of SS18 (human) (Q15532 2-418 limits assumed): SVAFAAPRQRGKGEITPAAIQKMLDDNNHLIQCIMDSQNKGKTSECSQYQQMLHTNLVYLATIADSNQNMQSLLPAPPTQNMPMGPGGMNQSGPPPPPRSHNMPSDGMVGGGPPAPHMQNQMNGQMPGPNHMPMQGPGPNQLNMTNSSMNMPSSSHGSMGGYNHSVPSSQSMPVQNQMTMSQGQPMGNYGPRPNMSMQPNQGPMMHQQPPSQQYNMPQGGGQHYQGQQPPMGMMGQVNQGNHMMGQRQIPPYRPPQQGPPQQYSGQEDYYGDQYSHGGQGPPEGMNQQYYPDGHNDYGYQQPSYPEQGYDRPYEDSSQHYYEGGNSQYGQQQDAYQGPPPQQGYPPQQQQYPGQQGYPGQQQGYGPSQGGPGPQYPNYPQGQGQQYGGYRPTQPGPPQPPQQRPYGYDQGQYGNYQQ
Sequence of BCL7A (human) (Q4VC05 whole entry): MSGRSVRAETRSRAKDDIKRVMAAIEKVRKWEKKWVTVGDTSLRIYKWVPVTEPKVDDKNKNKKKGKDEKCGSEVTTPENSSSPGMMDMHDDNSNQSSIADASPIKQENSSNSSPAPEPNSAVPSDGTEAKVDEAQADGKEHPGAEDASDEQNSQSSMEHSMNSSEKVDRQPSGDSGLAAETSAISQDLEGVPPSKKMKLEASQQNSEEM
Sequence of SMARCA4 (human) (P51532 whole entry): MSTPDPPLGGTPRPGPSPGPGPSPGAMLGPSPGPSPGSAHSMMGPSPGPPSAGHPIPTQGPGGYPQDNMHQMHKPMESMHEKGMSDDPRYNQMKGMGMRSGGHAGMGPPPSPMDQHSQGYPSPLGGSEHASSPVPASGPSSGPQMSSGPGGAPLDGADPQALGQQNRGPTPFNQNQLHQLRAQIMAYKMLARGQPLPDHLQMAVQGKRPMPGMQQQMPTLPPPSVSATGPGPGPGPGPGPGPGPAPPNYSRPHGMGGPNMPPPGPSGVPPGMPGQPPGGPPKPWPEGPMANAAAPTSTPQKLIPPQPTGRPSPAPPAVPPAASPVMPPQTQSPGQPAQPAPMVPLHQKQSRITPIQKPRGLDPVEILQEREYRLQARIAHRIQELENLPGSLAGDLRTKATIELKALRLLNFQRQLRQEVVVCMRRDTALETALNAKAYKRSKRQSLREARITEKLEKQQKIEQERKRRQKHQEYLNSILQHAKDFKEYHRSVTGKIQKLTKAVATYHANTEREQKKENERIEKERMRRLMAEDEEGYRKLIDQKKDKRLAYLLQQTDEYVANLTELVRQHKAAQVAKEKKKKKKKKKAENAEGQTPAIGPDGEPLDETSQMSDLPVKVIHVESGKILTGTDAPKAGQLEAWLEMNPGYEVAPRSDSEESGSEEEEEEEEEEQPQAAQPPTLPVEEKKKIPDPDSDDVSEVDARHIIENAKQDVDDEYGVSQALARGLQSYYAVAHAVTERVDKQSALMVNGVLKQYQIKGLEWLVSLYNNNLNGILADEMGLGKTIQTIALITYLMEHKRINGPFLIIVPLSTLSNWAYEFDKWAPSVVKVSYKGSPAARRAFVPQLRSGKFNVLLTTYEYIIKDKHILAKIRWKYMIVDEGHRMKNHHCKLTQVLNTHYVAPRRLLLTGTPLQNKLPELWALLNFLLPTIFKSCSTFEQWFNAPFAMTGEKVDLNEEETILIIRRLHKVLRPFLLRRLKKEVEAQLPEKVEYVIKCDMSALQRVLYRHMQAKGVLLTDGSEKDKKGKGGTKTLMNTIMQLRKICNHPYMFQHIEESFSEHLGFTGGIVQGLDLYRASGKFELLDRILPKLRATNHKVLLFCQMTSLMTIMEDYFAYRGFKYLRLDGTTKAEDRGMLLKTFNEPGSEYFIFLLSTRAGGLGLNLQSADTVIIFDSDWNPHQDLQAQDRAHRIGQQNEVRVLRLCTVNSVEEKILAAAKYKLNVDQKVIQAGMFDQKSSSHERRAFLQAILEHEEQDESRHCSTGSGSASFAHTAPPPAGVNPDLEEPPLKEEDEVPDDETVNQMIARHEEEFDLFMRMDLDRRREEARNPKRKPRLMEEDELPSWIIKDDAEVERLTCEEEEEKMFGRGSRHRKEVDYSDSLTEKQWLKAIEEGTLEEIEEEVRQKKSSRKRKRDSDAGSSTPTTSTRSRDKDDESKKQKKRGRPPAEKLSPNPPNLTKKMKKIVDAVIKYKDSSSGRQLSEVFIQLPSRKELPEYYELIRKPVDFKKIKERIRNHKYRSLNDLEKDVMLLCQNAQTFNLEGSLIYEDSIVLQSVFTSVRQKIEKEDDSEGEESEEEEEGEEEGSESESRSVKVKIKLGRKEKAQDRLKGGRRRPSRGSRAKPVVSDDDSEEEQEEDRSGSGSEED
Sequence of SMARCE1 (human) (Q969G3 whole entry): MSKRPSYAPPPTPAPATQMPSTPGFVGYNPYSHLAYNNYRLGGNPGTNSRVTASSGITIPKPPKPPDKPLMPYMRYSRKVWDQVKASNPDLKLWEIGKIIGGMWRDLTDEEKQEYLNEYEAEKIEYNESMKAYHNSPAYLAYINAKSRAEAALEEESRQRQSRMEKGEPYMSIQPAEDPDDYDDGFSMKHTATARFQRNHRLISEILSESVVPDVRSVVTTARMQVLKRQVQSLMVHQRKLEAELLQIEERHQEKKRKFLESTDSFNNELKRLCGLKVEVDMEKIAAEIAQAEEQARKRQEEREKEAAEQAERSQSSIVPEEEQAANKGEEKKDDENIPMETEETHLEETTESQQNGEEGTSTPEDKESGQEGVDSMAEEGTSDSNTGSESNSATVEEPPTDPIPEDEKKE
Sequence of SMARCD1 (human) (Q96GM5 whole entry): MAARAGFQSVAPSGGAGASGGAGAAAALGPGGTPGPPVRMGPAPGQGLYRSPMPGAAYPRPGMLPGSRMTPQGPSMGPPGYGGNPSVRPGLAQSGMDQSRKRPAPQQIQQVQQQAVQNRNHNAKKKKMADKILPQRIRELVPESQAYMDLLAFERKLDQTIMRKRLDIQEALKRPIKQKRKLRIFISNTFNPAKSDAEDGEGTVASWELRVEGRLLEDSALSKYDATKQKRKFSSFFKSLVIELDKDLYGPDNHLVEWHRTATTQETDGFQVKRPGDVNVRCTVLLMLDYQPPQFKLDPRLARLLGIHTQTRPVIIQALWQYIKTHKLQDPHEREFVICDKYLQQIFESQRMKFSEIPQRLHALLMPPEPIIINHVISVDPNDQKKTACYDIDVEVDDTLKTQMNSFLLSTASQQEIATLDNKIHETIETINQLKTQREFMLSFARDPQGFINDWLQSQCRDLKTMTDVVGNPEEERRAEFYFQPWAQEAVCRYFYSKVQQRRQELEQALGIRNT
Sequence of SMARCC2 (human) (Q8TAQ2 whole entry): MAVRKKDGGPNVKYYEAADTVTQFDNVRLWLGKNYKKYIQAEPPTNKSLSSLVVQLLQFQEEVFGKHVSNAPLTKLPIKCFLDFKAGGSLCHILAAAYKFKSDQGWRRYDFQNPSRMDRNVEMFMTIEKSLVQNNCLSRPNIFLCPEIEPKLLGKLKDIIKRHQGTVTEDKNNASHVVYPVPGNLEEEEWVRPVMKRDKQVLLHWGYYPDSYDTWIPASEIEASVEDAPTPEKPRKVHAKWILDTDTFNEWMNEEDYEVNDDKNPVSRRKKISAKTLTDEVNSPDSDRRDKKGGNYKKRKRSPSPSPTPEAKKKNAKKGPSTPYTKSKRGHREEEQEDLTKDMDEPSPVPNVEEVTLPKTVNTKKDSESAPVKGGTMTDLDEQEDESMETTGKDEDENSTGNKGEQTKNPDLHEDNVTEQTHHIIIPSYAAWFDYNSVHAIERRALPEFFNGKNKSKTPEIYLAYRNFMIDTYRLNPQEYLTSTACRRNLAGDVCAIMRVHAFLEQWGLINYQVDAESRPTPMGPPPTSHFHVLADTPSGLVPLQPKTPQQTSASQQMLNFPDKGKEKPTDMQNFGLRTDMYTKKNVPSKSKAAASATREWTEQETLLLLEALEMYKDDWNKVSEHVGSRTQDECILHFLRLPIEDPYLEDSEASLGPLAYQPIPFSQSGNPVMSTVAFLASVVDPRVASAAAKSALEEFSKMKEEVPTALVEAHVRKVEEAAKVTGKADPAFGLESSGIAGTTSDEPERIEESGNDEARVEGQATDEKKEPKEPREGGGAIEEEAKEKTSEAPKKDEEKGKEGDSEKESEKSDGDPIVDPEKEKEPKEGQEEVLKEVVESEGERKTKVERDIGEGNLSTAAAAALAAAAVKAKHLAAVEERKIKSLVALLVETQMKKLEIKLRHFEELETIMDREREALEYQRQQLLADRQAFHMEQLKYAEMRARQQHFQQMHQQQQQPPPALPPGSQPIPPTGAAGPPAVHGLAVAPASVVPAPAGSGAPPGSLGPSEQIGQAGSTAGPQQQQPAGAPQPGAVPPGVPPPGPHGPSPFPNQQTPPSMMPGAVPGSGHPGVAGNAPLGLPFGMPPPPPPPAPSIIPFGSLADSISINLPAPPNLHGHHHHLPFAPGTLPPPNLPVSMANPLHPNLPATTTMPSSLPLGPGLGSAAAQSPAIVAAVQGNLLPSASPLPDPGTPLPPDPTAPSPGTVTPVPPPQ
Sequence of SMARCD2 (human) (Q92925 whole entry): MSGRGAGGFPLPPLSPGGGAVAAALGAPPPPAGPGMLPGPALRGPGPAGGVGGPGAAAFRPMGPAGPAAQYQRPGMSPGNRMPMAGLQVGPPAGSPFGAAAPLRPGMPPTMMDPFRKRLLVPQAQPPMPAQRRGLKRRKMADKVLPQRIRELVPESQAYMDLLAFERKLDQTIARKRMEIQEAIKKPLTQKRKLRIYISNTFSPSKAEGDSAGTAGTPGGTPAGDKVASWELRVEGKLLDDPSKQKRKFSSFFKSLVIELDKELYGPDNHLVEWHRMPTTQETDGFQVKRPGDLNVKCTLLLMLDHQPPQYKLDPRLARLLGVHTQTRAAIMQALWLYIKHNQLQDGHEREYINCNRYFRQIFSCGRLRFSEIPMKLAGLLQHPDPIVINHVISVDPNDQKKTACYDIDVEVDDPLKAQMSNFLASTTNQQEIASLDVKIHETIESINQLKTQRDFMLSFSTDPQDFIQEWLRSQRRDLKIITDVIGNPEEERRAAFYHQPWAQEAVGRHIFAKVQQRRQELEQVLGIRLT

HA-BRD7 (from UniProt Q9NPI1 1-651)
Total (SMARCE1 (human) [1]): 81 peptides | Unique (SMARCE1 (human) [1]): 40 peptides | Total (SMARCA2 (human) [2]): 146 peptides | Unique (SMARCA2 (human) [2]): 85 peptides | Total (BCL7C (human) [3]): 17 peptides | Unique (BCL7C (human) [3]): 10 peptides | Total (ACTL6B (human)): 1 peptides | Unique (ACTL6B (human)): 1 peptides | Total (DPF2 (human)): 1 peptides | Unique (DPF2 (human)): 1 peptides | Total (PHF10 (human)): 58 peptides | Unique (PHF10 (human)): 31 peptides | Total (SMARCC1 (human) [4]): 203 peptides | Unique (SMARCC1 (human) [4]): 83 peptides | Total (SMARCA4 (human) [5]): 107 peptides | Unique (SMARCA4 (human) [5]): 53 peptides | Total (ARID2 (human)): 157 peptides | Unique (ARID2 (human)): 67 peptides | Total (SMARCD3 (human) [6]): 23 peptides | Unique (SMARCD3 (human) [6]): 20 peptides | Total (SMARCB1 (human) [7]): 59 peptides | Unique (SMARCB1 (human) [7]): 26 peptides | Total (ACTL6A (human) [8]): 44 peptides | Unique (ACTL6A (human) [8]): 28 peptides | Total (BCL7A (human) [9]): 36 peptides | Unique (BCL7A (human) [9]): 21 peptides | Total (SMARCD2 (human) [10]): 59 peptides | Unique (SMARCD2 (human) [10]): 34 peptides | Total (SMARCC2 (human) [11]): 136 peptides | Unique (SMARCC2 (human) [11]): 64 peptides | Total (PBRM1 (human)): 404 peptides | Unique (PBRM1 (human)): 147 peptides | Total (BCL7B (human)): 4 peptides | Unique (BCL7B (human)): 3 peptides

HA-BRD9 (from UniProt Q9H8M2 1-597)
Total (SMARCD1 (human) [12]): 33 peptides | Unique (SMARCD1 (human) [12]): 22 peptides | Total (SMARCA2 (human) [2]): 49 peptides | Unique (SMARCA2 (human) [2]): 27 peptides | Total (BCL7C (human) [3]): 3 peptides | Unique (BCL7C (human) [3]): 3 peptides | Total (GLTSCR1 (human)): 62 peptides | Unique (GLTSCR1 (human)): 33 peptides | Total (SMARCC1 (human) [4]): 53 peptides | Unique (SMARCC1 (human) [4]): 36 peptides | Total (SMARCA4 (human) [5]): 31 peptides | Unique (SMARCA4 (human) [5]): 20 peptides | Unique (ACTL6A (human) [8]): 10 peptides | Total (BCL7A (human) [9]): 6 peptides | Unique (BCL7A (human) [9]): 5 peptides | Total (GLTSCR1L (human)): 16 peptides | Unique (GLTSCR1L (human)): 14 peptides | Total (SS18 (human) [13]): 1 peptides | Unique (SS18 (human) [13]): 1 peptides

HA-DPF2 (from UniProt Q92785 1-391)
Total (SMARCD1 (human) [14]): 83 peptides | Unique (SMARCD1 (human) [14]): 37 peptides | Total (ARID1A (human)): 311 peptides | Unique (ARID1A (human)): 114 peptides | Total (SMARCE1 (human) [15]): 118 peptides | Unique (SMARCE1 (human) [15]): 40 peptides | Total (SMARCA2 (human) [16]): 130 peptides | Unique (SMARCA2 (human) [16]): 74 peptides | Total (SS18L1 (human)): 3 peptides | Unique (SS18L1 (human)): 2 peptides | Total (BCL7C (human) [17]): 13 peptides | Unique (BCL7C (human) [17]): 7 peptides | Total (SMARCC1 (human) [18]): 359 peptides | Unique (SMARCC1 (human) [18]): 87 peptides | Total (SMARCA4 (human) [19]): 88 peptides | Unique (SMARCA4 (human) [19]): 47 peptides | Total (SMARCD3 (human) [20]): 23 peptides | Unique (SMARCD3 (human) [20]): 20 peptides | Total (ARID1B (human)): 147 peptides | Unique (ARID1B (human)): 85 peptides | Total (SMARCB1 (human) [21]): 62 peptides | Unique (SMARCB1 (human) [21]): 22 peptides | Total (ACTL6A (human) [22]): 61 peptides | Unique (ACTL6A (human) [22]): 23 peptides | Total (BCL7A (human) [23]): 36 peptides | Total (SMARCD2 (human) [24]): 51 peptides | Unique (SMARCD2 (human) [24]): 32 peptides | Total (SMARCC2 (human) [25]): 105 peptides | Unique (SMARCC2 (human) [25]): 52 peptides | Total (SS18 (human) [26]): 2 peptides | Unique (SS18 (human) [26]): 2 peptides

— US20210388040A1
